Experiment [1] addresses Human Factor XIa (human) (UniProt P03951). Briefly: enzyme inhibition of FXIa, chromogenic substrate, fit to the tight-binding equation (apparent Ki*).
For experiment [2] the target is unchanged.
For experiment [3], the target named is Human plasma kallikrein (human) (UniProt P03952).
Experiment [4] has as its target tissue factor-Factor VIIa (human) (UniProt P13726).
In experiment [5] the target is Human Factor XIa (human) (UniProt P03951). This is another data set of the same source.

Turning to “APPI, Kunitz protease inhibitor domain of the Alzheimer's amyloid β-protein precursor”, in experiment [1], the Ki amounted to 2.7 nM. The fraction of remaining proteolytic activity at 100 nM inhibitor (fraction of uninhibited rate) in experiment [2] was 0.03; in experiment [3] it was 0.81; in experiment [4] it was 0.6. The fold prolongation of the clotting time of normal human plasma, APTT assay in experiment [5] worked out at 2.8 fold.

For the origin of these results see patent publication US5780265.
